Where a SMILES comes first, the peptide text is derived from it. Bridges are numbered along the chain shown (N, C = ends).
Experiments:
[1] = circular dichroism; settings: water (methods paragraph says 0.1 M phosphate; tables say water); pH ns; 20 °C; 0.5 mM
[2] = Direct HA-binding ELISA of biotinylated peptides on HA coated plates (Example 4); parameters: key to HA binding: absorbance (color) read at 450 nm
Method: Each of these peptides was biotinylated at its amino-terminus, and an AEEA spacer was included to separate the peptide sequence from the biotin molecule.
HA coated plates were purchased (ECHELON). Peptides were dissolved in 2 mM PBS to constant molarity, aliquoted and stored at −20° C. until used in assays. 7 kDa biotin-labeled RHAMM (SEQ ID NO: 1) was synthesized and used as a positive control in these assays. Biotin labeled peptides were added to the HA coated wells (n=3 replicates/peptide) at either 0.8 or 0.08 μM and then incubated with shaking overnight at 4° C. Wells were washed free of excess unbound peptides using 200 μl PBS (4 times). 100 μl of Streptavidin-HRP was then added to each well and the plate was incubated at room temperature for 1 hr. The plate was then washed with 200 μl PBS/well 4 times and TMB Liquid Substrate System for ELISA (Sigma) was added to each well, incubated for 5-10 min at room temperature and color read at 450 nm Plate Reader (BioTek, SYNERGY H4, Hybrid Reader).
Direct HA-binding results for the biotinylated equivalents of compounds 132 and 150-161 are show in FIG. 39, and results for compounds 265-268 and 275-278 are shown in FIG. 40.

[3] = test system: RHAMM-overexpressing (LR21) cells; assay: Cell migration assay (Boyden chamber, Chemicon ECM510); format: cell-based; settings: % inhibition relative to positive control
Method: Compounds 132, 133, 150-152, 156-161, 265-269, 275, 277, and 278 were evaluated for their ability to inhibit cell migration. Cell migration assays were performed using Chemicon Assay Kits (ECM510 (Migration); Billerica, Mass., USA) according to the manufacturer's protocol. Briefly, sub-confluent cultures of RHAMM-overexpressing (LR21) cells were serum starved overnight. 7.5×10^4 cells were then plated in the upper chamber of a Boyden chamber. either in the presence or absence of 10 ng/mL of peptide. 30% fetal bovine serum in DMEM was used as the chemo-attractant in the lower chamber. The number of cells that had crossed the membrane after 20 hours was assessed using the CYQUANT GR Dye and lysis buffer solution provided in the kit. Fluorescence was measured with a fluorescent plate reader using a 480/520 nm filter set.
Values are the mean and SDM of n=3 replicates. *p<0.05, **p<0.01. All statistics compare to 30% serum control. In FIGS. 41-43, where bars are labeled with two compound numbers (“133/150” and “135/152”) this means that the data were pooled for the indicated compounds, i.e., for the non-acetylated and acetylated versions of the indicated peptides.

[4] = Function blocking score: total percent inhibition over migration, invasion, inflammation and fibrosis assays divided by number of assays; format: cell-based; settings: total percent inhibition for all assays tested divided by number of assays
Method: As documented in the Examples hereinabove, a variety of cyclized peptides were produced that contained the HA-binding domain 1 (HABD1), HA-binding domain 2 (HABD2), or both HABD1 and HABD2. These peptides were evaluated for helicity, direct HA binding and in a number of cell-based bioassays (effects on migration, invasion, NFkB activation, and TGFβ1 production) that are relevant to inflammation and fibrosis. The relationships amongst helicity, HA-binding, and biofunction were evaluated. Peptides were divided into three groups for this analysis: (1) peptides containing HABD1 (“HABD1”); (2) peptides containing HABD2 (“HABD2”); and peptides containing most or all of HABD1 and all of HABD2 (“HABD1+HABD2”). R^2 values were calculated to quantify the relationships between helicity, HA-binding, and biofunction were evaluated.
The results of this analysis for the HABD1 peptides are shown below in Tables 15 and 16. Table 16 provides a function blocking scores for each of the tested peptides and provides R^2 values showing the relationship between HA binding and helicity (“HA binding vs. CD”), HA binding and function-blocking score (“HA binding vs. FBS”) and helicity vs. function-blocking score (“CD vs. FBS”). The same type of summaries are provided for the HABD2 peptides in Tables 17 and 18 below, and for the HABD1+HABD2 peptides in Tables 19 and 20 below.
Function blocking scores were calculated as the total percent inhibition achieved by the peptide for all assays the peptides were tested in, divided by the number of assays. Assays included migration, invasion, inflammation and fibrosis assays. Not all peptides were tested all of the assays. All peptides were included for deriving R^2 values (Pearson's formula).

[5] = test system: RHAMM-overexpressing (LR21) cells; assay: Cell invasion assay (Boyden chamber with MATRIGEL, Chemicon ECM555); format: cell-based; settings: % inhibition relative to positive control; 10 ng/mL of peptide
Method: Compounds 132, 133, 135, 150-153, 156, 265-269, and 275-278 were evaluated for their ability to inhibit cellular invasion. Invasion assays were performed using Chemicon Assay Kits ECM555 (Invasion); Billerica, Mass., USA) according to the manufacturer's protocol. Invasion assays are performed in an identical manner as the migration assays described above in Example 5, except that cells are required to invade through a layer of extracellular matrix (MATRIGEL) coating the filter that separates the upper and lower Boyden chambers. Briefly, sub-confluent cultures of RHAMM-overexpressing (LR21) cells were serum starved overnight before plating 7.5×10^4 cells in the upper chamber of a Boyden chamber either in the presence or absence of 10 ng/mL of peptide. 30% fetal bovine serum in DMEM was used as the chemo-attractant in the lower chamber. The number of cells that had crossed the membrane after 20 hours was assessed using the CYQUANT® GR Dye and lysis buffer solution provided in the kit. Fluorescence was measured with a fluorescent plate reader using 480/520 nm filter set.
Values the mean and SDM of n=3 replicates. *p<0.05, **p<0.01, ***p<0.001 All statistics compared to 30% serum control. In FIG. 49, where bars are labeled with two compound numbers (“152/135”) this means that the data were pooled for the indicated compound, i.e., for the non-acetylated and acetylated versions of the indicated peptide.

[6] = Circular dichroism (CD) spectroscopy of linear and stapled peptides in water or 40% TFE/water (Example 3); format: physicochemical; settings: for [0]208 mean residue ellipticity: λ = 208 nm; for [0]222 mean residue ellipticity: λ = 222 nm
Method: CD spectra were obtained on a Jasco J-810 spectropolarimeter and recorded in the range of 180-260 nm. Peptide solutions were prepared with a 0.1M phosphate buffer solution to a concentration of 0.5 mM. The measurements were performed in quartz cuvettes with a path length of 1 mm and a scanning speed of 10-50 nm/min. Five individual data points were averaged by the instrument in order to obtain the reported CD spectrum. The measurements were carried out at 20° C. A blank solution of 0.1M phosphate buffer solution was run before every measurement in order to baseline correct for any UV-interference observed from the buffer.
CD data for the 14- and 15-mer peptides containing HABD2 (VSKLRSQLVKRKQN, SEQ ID NO: 2) and HABD1 (NLKQKIKHVVKLKDE, SEQ ID NO: 4) and cyclized derivatives thereof in water or 40% TFE/water are provided below in Tables 8 (water) and 9 (40% TFE/water). Tables 8 and 9 provide the mean residue ellipicity ([θ] deg cm^2 dmol^−1) at λ=222 and 208 nm for each peptide and ratios of ellipticities at 222/208. Each of the peptides was acetylated at its amino terminus and amidated at its carboxy terminus.
CD data for linear peptides having the sequences […] (SEQ ID NO: 5) and […] (SEQ ID NO: 6) and cyclized derivatives thereof in water or 40% TFE/water are provided below in Tables 12 (water) and 13 (40% TFE/water). Tables 12 and 13 provide the mean residue ellipicity ([0] deg cm^2 dmol^−1) at λ=222 and 208 nm for each peptide and ratios of ellipticities at 222/208. Each of the peptides was acetylated at its amino terminus and amidated at its carboxy terminus.
Circular Dichroism (CD) spectroscopy is a tool that is used to study the secondary structure characteristics of a compound. Peptides and proteins can fold into organized structures, such as alpha helices and beta sheets, which are the result of complex hydrogen bonding and other interactions between amino acid side chains, as well as adopt a random coil formation, which lacks much of the organization of the other two structures. The CD spectrum of an alpha helix is characterized by two local minima at 208 nm and 222 nm. The ratio of the values of the molar ellipticities at these wavelengths ([θ]222/[θ]208) is a strong indication of the relative helicity of a compound; a compound is more helical when the ratio of these two values approaches 1.0. Synthetic constraints introduced to the peptide backbone can force a peptide chain to increase its helical character. These constraints can be introduced by staples, of varying types, which allow cyclization of the peptide backbone to take place.

[7] = as repeated in tables 16, 18, 20

CC[C@H](C)[C@@H]1NC(=O)[C@H](CCCCN)NC(=O)[C@@H](NC(=O)[C@H](CCCCN)NC(=O)[C@H](CC(C)C)NC(=O)[C@H](CC(N)=O)NC(C)=O)CCC(=O)NCCCC[C@@H](C(=O)N[C@H](C(=O)N[C@H](C(=O)N[C@@H](CCCCN)C(=O)N[C@@H](CC(C)C)C(=O)N[C@@H](CCCCN)C(=O)N[C@@H](CC(=O)O)C(=O)N[C@@H](CCC(=O)O)C(N)=O)C(C)C)C(C)C)NC(=O)[C@H](CCCCN)NC1=O (Ac-NLKEKIKKVVKLKDE-NH2; lactam 4-8)
helicity [1]: -2460 MRE222

CC[C@H](C)[C@@H]1NC(=O)[C@@H](NC(=O)[C@H](CCC(N)=O)NC(=O)[C@H](CCCCN)NC(=O)[C@H](CC(C)C)NC(=O)[C@H](CC(N)=O)NC(C)=O)CCC(=O)NCCCC[C@@H](C(=O)N[C@H](C(=O)N[C@@H](CCCCN)C(=O)N[C@@H](CC(C)C)C(=O)N[C@@H](CCCCN)C(=O)N[C@@H](CC(=O)O)C(=O)N[C@@H](CCC(=O)O)C(N)=O)C(C)C)NC(=O)[C@H](Cc2c[nH]cn2)NC(=O)[C@H](CCCCN)NC1=O (Ac-NLKQEIKHKVKLKDE-NH2; lactam 5-9)
helicity [1]: -2830 MRE222

CC(=O)N[C@@H](CC(N)=O)C(=O)N[C@@H](CC(C)C)C(=O)N[C@@H](CCCCN)C(=O)N[C@@H](CCC(N)=O)C(=O)N[C@@H](CCCCN)C(=O)N[C@H]1CCC(=O)NCCCC[C@@H](C(=O)N[C@@H](CCCCN)C(=O)N[C@@H](CC(C)C)C(=O)N[C@@H](CCCCN)C(=O)N[C@@H](CC(=O)O)C(=O)N[C@@H](CCC(=O)O)C(N)=O)NC(=O)[C@H](C(C)C)NC(=O)[C@H](Cc2c[nH]cn2)NC(=O)[C@H](CCCCN)NC1=O (Ac-NLKQKEKHVKKLKDE-NH2; lactam 6-10)
helicity [1]: -2610 MRE222

CC[C@H](C)[C@H](NC(=O)[C@H](CCCCN)NC(=O)[C@H](CCC(N)=O)NC(=O)[C@H](CCCCN)NC(=O)[C@H](CC(C)C)NC(=O)[C@H](CC(N)=O)NC(C)=O)C(=O)N[C@H]1CCC(=O)NCCCC[C@@H](C(=O)N[C@@H](CC(C)C)C(=O)N[C@@H](CCCCN)C(=O)N[C@@H](CC(=O)O)C(=O)N[C@@H](CCC(=O)O)C(N)=O)NC(=O)[C@H](C(C)C)NC(=O)[C@H](C(C)C)NC(=O)[C@H](Cc2c[nH]cn2)NC1=O (Ac-NLKQKIEHVVKLKDE-NH2; lactam 7-11)
helicity [1]: -3850 MRE222

CC[C@H](C)[C@H](NC(=O)[C@H](CCCCN)NC(=O)[C@H](CCC(N)=O)NC(=O)[C@H](CCCCN)NC(=O)[C@H](CC(C)C)NC(=O)[C@H](CC(N)=O)NC(C)=O)C(=O)N[C@@H](CCCCN)C(=O)N[C@H]1CCC(=O)NCCCC[C@@H](C(=O)N[C@@H](CCCCN)C(=O)N[C@@H](CC(=O)O)C(=O)N[C@@H](CCC(=O)O)C(N)=O)NC(=O)[C@H](CCCCN)NC(=O)[C@H](C(C)C)NC(=O)[C@H](C(C)C)NC1=O (Ac-NLKQKIKEVVKKKDE-NH2; lactam 8-12)
helicity [1]: -1800 MRE222

CC(=O)N[C@H](C(=O)N[C@@H](CO)C(=O)N[C@@H](CCCCN)C(=O)N[C@H]1CCC(=O)NCCCC[C@@H](C(=O)N[C@H](C(=O)N[C@@H](CCCCN)C(=O)N[C@@H](CCCNC(=N)N)C(=O)N[C@@H](CCCCN)C(=O)N[C@@H](CCC(N)=O)C(=O)N[C@@H](CC(N)=O)C(N)=O)C(C)C)NC(=O)[C@H](CCC(N)=O)NC(=O)[C@H](CO)NC(=O)[C@H](CCCNC(=N)N)NC1=O)C(C)C (Ac-VSKERSQKVKRKQN-NH2; lactam 4-8)
helicity [1]: -3350 MRE222

Ac-NLKQKIKHVVKLKDE-NH2 [Compound 156]
HA binding [2, 7]: 0.01 | HA direct binding (OD) ([2]; optical density, summary tables 15, 17, 19): 0.01 OD | Migration (% inhib.) [3]: 0 % inhib. | Function blocking score (FBS) [4]: 0 | Invasion (% inhib.) [5]: 0 % inhib. | [θ]222/[θ]208 ratio of ellipticities ([6]; [θ]222/[θ]208 ratio in water, summary tables 15, 17, 19): 0.11 | [θ]222/[θ]208 ratio of ellipticities [6, 7]: 0.11 | [0]222/[0]208 ratio of ellipticities ([6]; in 40% TFE/water): 0.74 | [0]222/[0]208 ratio of ellipticities ([6]; in water): 0.11 | alpha-helical character by CD (in words) ([6]; in water): nominal alpha helical character in water | [0]208 mean residue ellipticity ([6]; in 40% TFE/water): -1.03E+04 deg cm^2 dmol^−1 | [0]208 mean residue ellipticity ([6]; in water): -9.00E+02 deg cm^2 dmol^−1 | [0]222 mean residue ellipticity ([6]; in 40% TFE/water): -8.57E+03 deg cm^2 dmol^−1 | [0]222 mean residue ellipticity ([6]; in water): -1.01E+02 deg cm^2 dmol^−1

Source: patent US10562935B2, “Stapled peptides and uses thereof” (London Health Sciences Centre Research Inc., priority 2015, dated 2020)
